This passage reports response results from paper PMC5290273 (Nature Communications, 2017).

B1: His6-tagged wild-type AFF4^ELLBow (AFF4 301–351) [human] / Sumo-ELL2^Occ, wild type [human] (parent complex)
chain 1: PSQPLDASASGDVSCVDEILKEMTHSWPPPLTAIHTPCKTEPSKFPFPTKE
chain 2: EPSAIELPDYLIKYIAIVSYEQRQNYKDDFNAEYDEYRALHARMETVARRFIKLDAQRKRLSPGSKEYQNVHEEVLQEYQKIKQSSPNYHEEKYRCEYLHNKLAHIKRLIGEFDQQQAESWS
B2: Sumo-ELL2^Occ, wild type [human] / fluorescently labelled AFF1^ELLBow peptide 358–390 [modified: C-FAM-GABA- at the N-terminus (FAM: 5-carboxyfluoroscein; GABA: γ-amino-butyric acid spacer); C-terminal amide; C-FAM-GABA- at the N-terminus … (parent complex)
chain 1: B1 chain 2
chain 2: EILKEMTHSWPPPLTAIHTPSTAEPSKFPFPTK

The variants in one test derive from B1. Kind of test: fluorescence polarisation competition; residual anisotropy at the highest unlabelled AFF4 concentration, about 30 µM read from the x axis; higher residual anisotropy = weaker competition; read off a plot. Background: In fluorescence polarisation assays a small probe gives low polarisation when free and higher when bound to something large.
Consider chain 1 M23D, chain 1 L31D, chain 1 I34D, for which the response is roughly 63 mP. Regarding chain 1 W27D, chain 1 L31D, chain 1 I34D, the response is roughly 46 mP. In the case of chain 1 L31D, chain 1 I34D, the response is roughly 17 mP.

Variants of B1 are the subject of another test. The test is described as above. This is another data set of the same source.
On to chain 1 D17P, chain 1 E18P, for which the response was roughly 7 mP.

Variants of B2 are the subject of the next test. Kind of test: fluorescence polarisation, direct titration; signal at the highest Sumo-ELL2 concentration, about 30 µM read from the x axis; read off a plot.
As for chain 1 H41E, chain 1 H90E, chain 1 N101A, chain 1 K107T, the response was roughly 7 mP.
